In US20250353917A1 (SYSTIMMUNE, published 2025):
Read-outs that look alike come from different tables or passages of the source.

Key:
EGFR on BxPC-3 cells [1] = biological target: T1, EGFR on BxPC-3 cells (UniProt P00533 25-1210, limits assumed); assay: cell-based or functional assay
His-tagged human EGFR [2] = biological target: T2, His-tagged human EGFR (human, UniProt P00533 25-645, limits assumed); assay: BLI (Octet), scFv-His coupled to AR2G sensors, His-tagged human EGFR in solution, 1:1 global fit
T2 construct: also called huEGFR
Protocol: (§1) Fc-containing protein was captured to anti-human Fc (AHC) sensor tips by loading for 180 seconds at 10 μg/ml. Alternatively, His-tagged proteins were covalently coupled at 10 ug/ml to AR2G tips using manufacturer protocol. After a 60-second baseline step, a 180- to 300-second association phase with serial dilutions (0-200 nM; 1:2.5 dilution factor) or a single 100 nM concentration of purified human EGFR in assay buffer (phosphate-buffered saline containing 0.1% BSA, 0.05% Tween20) was performed, followed by a 300- to 600—second dissociation phase in assay buffer. Regeneration was achieved using 10 mM glycine, pH 1.5. Binding curves were globally fit to a 1:1 model to extract the dissociation constants, KD. Binding kinetics for each protein were assessed in duplicate, with tabulated values reported as average±standard deviation.

His-tagged human EGFR [3] = biological target: T2, His-tagged human EGFR; assay: as above; remark: listed apart in the source
Protocol: as §1

EGFR on BxPC-3 cells [4] = biological target: T1, EGFR on BxPC-3 cells; assay: cell-based or functional assay; remark: listed apart in the source
[5] = biological target: T3, soluble recombinant extracellular domain of human EGFR (human, UniProt P00533 25-645); assay: BLI (Octet), mAb on AHC sensors, soluble EGFR extracellular domain
T3 construct: extracellular domain
Protocol: as §1

B1: SI-68P13 (other)
heavy: EIVLTQSPSTLSVSPGERATFSCRASQSIGTNIHWYQQKPGKPPRLLIKYASESISGIPDRFSGSGSGTEFTLTISSVQSEDFAVYYCQQNNNWPTTFGPGTKLTVLGGGGSGGGGSGGGGSGGGGSQVQLQQSGPGLVKPSETLSITCTVSGFSLTNYGVHWIRQAPGKGLEWLGVIWSGGNTDYNTPFTSRFTITKDNSKNQVYFKLRSVRADDTAIYYCARALTYYDYEFAYWGQGTLVTVSSGGGGSGGGGSEVQLVESGGGLVQPGGSLRLSCAASGFTISTNAMSWVRQAPGKGLEWIGVITGRDITYYASWAKGRFTISRDNSKNTLYLQMNSLRAEDTAVYYCARDGGSSAITSNNIWGQGTLVTVSSASTKGPSVFPLAPSSKSTSGGTAALGCLVKDYFPEPVTVSWNSGALTSGVHTFPAVLQSSGLYSLSSVVTVPSSSLGTQTYICNVNHKPSNTKVDKRVEPKSCDKTHTCPPCPAPEAAGGPSVFLFPPKPKDTLMISRTPEVTCVVVDVSHEDPEVKFNWYVDGVEVHNAKTKPREEQYNSTYRVVSVLTVLHQDWLNGKEYKCAVSNKALPAPIEKTISKAKGQPREPQVYTLPPSRDELTKNQVSLSCAVKGFYPSDIAVEWESNGQPENNYKTTPPVLDSDGSFFLVSKLTVDKSRWQQGNVFSCSVMHEALHNHYTQKSLSLSPGGGGGSGGGGSDVVMTQSPSSVSASVGDRVTITCQASQNIRTYLSWYQQKPGKAPKLLIYAAANLASGVPSRFSGSGSGTDFTLTISDLEPGDAATYYCQSTYLGTDYVGGAFGGGTKLTVLGGGGSGGGGSGGGGSGGGGSEVQLVESGGGLVQPGGSLRLSCTASGFTISSYHMQWVRQAPGKGLEYIGTISSGGNVYYASSARGRFTISRPSSKNTVDLQMNSLRAEDTAVYYCARDSGYSDPMWGQGTLVTVSS
light: ENVLTQSPASLSASPGERVTITCSASSSVSYMHWYQQKPGQAPKLWIYDTSKLASGVPSRFSGSGSGNDHTLTISSMEPEDFATYYCFQGSVYPFTFGQGTKVTVLGGGGSGGGGSGGGGSGGGGSQVTLKESGPGLVQPGQTLSLTCAFSGFSLSTSGMGVGWIRQPPGKGLEWLAHIWWDDDKRYNPALKSRLTISKDTSKNQVYLQMNSLDAEDTAVYYCARMELWSYYFDYWGQGTLVTVSSGGGGSGGGGSDVVMTQSPSTLSASVGDRVTINCQASESISSWLAWYQQKPGKAPKLLIYEASKLASGVPSRFSGSGSGTEFTLTISSLQPDDFATYYCQGYFYFISRTYVNSFGGGTKVEIKRTVAAPSVFIFPPSDEQLKSGTASVVCLLNNFYPREAKVQWKVDNALQSGNSQESVTEQDSKDSTYSLSSTLTLSKADYEKHKVYACEVTHQGLSSPVTKSFNRGECGGDKTHTCPPCPAPEAAGGPSVFLFPPKPKDTLMISRTPEVTCVVVDVSHEDPEVKFNWYVDGVEVHNAKTKPREEQYNSTYRVVSVLTVLHQDWLNGKEYKCAVSNKALPAPIEKTISKAKGQPREPQVYTLPPSRDELTKNQVSLWCLVKGFYPSDIAVEWESNGQPENNYKTTPPVLDSDGSFFLYSKLTVDKSRWQQGNVFSCSVMHEALHNRFTQKSLSLSPGGGGGSGGGGSDIQMTQSPSTLSASVGDRVTITCQASQSISSHLNWYQQKPGKAPKLLIYKASTLASGVPSRFSGSGSGTEFTLTISSLQPDDFATYYCQQGYSWGNVDNVFGGGTKVTVLGGGGSGGGGSGGGGSGGGGSEVQLLESGGGLVQPGGSLSLSCAASGFSFSSGYDMCWVRQAPGKGLEWIACIAAGSAGITYDANWAKGRFTISRDNSKNTLYLQMNSLRAEDTAVYYCARSAFSFDYAMDLWGQGTLVTVSS
- TDCC EC50 (pM) (EGFR on BxPC-3 cells [1]): 0.259 pM

B2: SI-79R2 (scFv)
scFv: EIVMTQSPSTLSASVGDRVIITCRASQSIGTNIHWYQQKPGKAPKLLIYYASESISGIPSRFSGSGSGAEFTLTISSLQPDDFATYYCQQNNNWPTTFGQGTKLTVLGGGGSGGGGSGGGGSGGGGSEVQLVESGGGLVQPGGSLRLSCTVSGFSLTNYGVHWVRQAPGKGLEWVGVIWSGGNTDYNTPFTSRFTISRDTSKNTVYLQMNSLRAEDTAVYYCARALTYYDYEFAYWGQGTLVTVSSGSHHHHHH
notes: the entry holds the whole construct; also called H1 scFv-6His; humanized scFv
- Kd (His-tagged human EGFR [2]): 12 nM
- koff (His-tagged human EGFR [2]): 0.0107 s⁻¹
- kon (His-tagged human EGFR [2]): 894000 M⁻¹ s⁻¹
- Kd (His-tagged human EGFR [3]): 12 nM

B3: SI-79X3 (bispecific antibody, human IgG1, kappa)
heavy 1: QVQLQQSGPGLVKPSETLSITCTVSGFSLTNYGVHWIRQAPGKGLEWLGVIWSGGNTDYNTPFTSRFTITKDNSKNQVYFKLRSVRADDTAIYYCARALTYYDYEFAYWGQGTLVTVSSASTKGPSVFPLAPSSKSTSGGTAALGCLVKDYFPEPVTVSWNSGALTSGVHTFPAVLQSSGLYSLSSVVTVPSSSLGTQTYICNVNHKPSNTKVDKRVEPKSCDKTHTCPPCPAPEAAGAPSVFLFPPKPKDTLMISRTPEVTCVVVDVSHEDPEVKFNWYVDGVEVHNAKTKPREEQYNSTYRVVSVLTVLHQDWLNGKEYKCAVSNKALPAPIEKTISKAKGQPREPQVYTLPPSRDELTKNQVSLTCLVKGFYPSDIAVEWESNGQPENNYKTTPPVLDSDGSFFLYSRLTVDKSRWQQGNVFSCSVMHEALHNHYTQKSLSLSPG
heavy 2: not shown
light 1: EIVLTQSPSTLSVSPGERATFSCRASQSIGTNIHWYQQKPGKPPRLLIKYASESISGIPDRFSGSGSGTEFTLTISSVQSEDFAVYYCQQNNNWPTTFGPGTKLTVLRTVAAPSVFIFPPSDEQLKSGTASVVCLLNNFYPREAKVQWKVDNALQSGNSQESVTEQDSKDSTYSLSSTLTLSKADYEKHKVYACEVTHQGLSSPVTKSFNRGEC
light 2: not shown
- *EC50 (pM), TDCC, depletion of luciferized BxPC3 cells with activated T cells (EGFR on BxPC-3 cells [4]): 20.3 pM

B4: SI-79C3 (antibody, human IgG1, kappa, V domains shown)
VH: QVQLQQSGPGLVKPSETLSITCTVSGFSLTNYGVHWIRQAPGKGLEWLGVIWSGGNTDYNTPFTSRFTITKDNSKNQVYFKLRSVRADDTAIYYCARALTYYDYEFAYWGQGTLVTVSS
VL: EIVLTQSPSTLSVSPGERATFSCRASQSIGTNIHWYQQKPGKPPRLLIKYASESISGIPDRFSGSGSGTEFTLTISSVQSEDFAVYYCQQNNNWPTTFGPGTKLTVLR
notes: Humanized version H7 in IgG format; also called H7; humanized H7 mAb
- Kd [5]: 2.41 nM
- koff [5]: 0.000812 s⁻¹
- kon [5]: 337000 M⁻¹ s⁻¹

B5: SI-68P17 (other)
heavy: DVVMTQSPSTLSASVGDRVTINCQASESISSWLAWYQQKPGKAPKLLIYEASKLASGVPSRFSGSGSGTEFTLTISSLQPDDFATYYCQGYFYFISRTYVNSFGGGTKVEIKGGGGSGGGGSGGGGSGGGGSEVQLVESGGGLVQPGGSLRLSCAASGFTISTNAMSWVRQAPGKGLEWIGVITGRDITYYASWAKGRFTISRDNSKNTLYLQMNSLRAEDTAVYYCARDGGSSAITSNNIWGQGTLVTVSSGGGGSGGGGSQVQLQQSGPGLVKPSETLSITCTVSGFSLTNYGVHWIRQAPGKGLEWLGVIWSGGNTDYNTPFTSRFTITKDNSKNQVYFKLRSVRADDTAIYYCARALTYYDYEFAYWGQGTLVTVSSASTKGPSVFPLAPSSKSTSGGTAALGCLVKDYFPEPVTVSWNSGALTSGVHTFPAVLQSSGLYSLSSVVTVPSSSLGTQTYICNVNHKPSNTKVDKRVEPKSCDKTHTCPPCPAPEAAGGPSVFLFPPKPKDTLMISRTPEVTCVVVDVSHEDPEVKFNWYVDGVEVHNAKTKPREEQYNSTYRVVSVLTVLHQDWLNGKEYKCAVSNKALPAPIEKTISKAKGQPREPQVYTLPPSRDELTKNQVSLSCAVKGFYPSDIAVEWESNGQPENNYKTTPPVLDSDGSFFLVSKLTVDKSRWQQGNVFSCSVMHEALHNHYTQKSLSLSPGGGGGSGGGGSDVVMTQSPSSVSASVGDRVTITCQASQNIRTYLSWYQQKPGKAPKLLIYAAANLASGVPSRFSGSGSGTDFTLTISDLEPGDAATYYCQSTYLGTDYVGGAFGGGTKLTVLGGGGSGGGGSGGGGSGGGGSEVQLVESGGGLVQPGGSLRLSCTASGFTISSYHMQWVRQAPGKGLEYIGTISSGGNVYYASSARGRFTISRPSSKNTVDLQMNSLRAEDTAVYYCARDSGYSDPMWGQGTLVTVSS
light: ENVLTQSPASLSASPGERVTITCSASSSVSYMHWYQQKPGQAPKLWIYDTSKLASGVPSRFSGSGSGNDHTLTISSMEPEDFATYYCFQGSVYPFTFGQGTKVTVLGGGGSGGGGSGGGGSGGGGSQVTLKESGPGLVQPGQTLSLTCAFSGFSLSTSGMGVGWIRQPPGKGLEWLAHIWWDDDKRYNPALKSRLTISKDTSKNQVYLQMNSLDAEDTAVYYCARMELWSYYFDYWGQGTLVTVSSGGGGSGGGGSEIVLTQSPSTLSVSPGERATFSCRASQSIGTNIHWYQQKPGKPPRLLIKYASESISGIPDRFSGSGSGTEFTLTISSVQSEDFAVYYCQQNNNWPTTFGPGTKLTVLRTVAAPSVFIFPPSDEQLKSGTASVVCLLNNFYPREAKVQWKVDNALQSGNSQESVTEQDSKDSTYSLSSTLTLSKADYEKHKVYACEVTHQGLSSPVTKSFNRGECGGDKTHTCPPCPAPEAAGGPSVFLFPPKPKDTLMISRTPEVTCVVVDVSHEDPEVKFNWYVDGVEVHNAKTKPREEQYNSTYRVVSVLTVLHQDWLNGKEYKCAVSNKALPAPIEKTISKAKGQPREPQVYTLPPSRDELTKNQVSLWCLVKGFYPSDIAVEWESNGQPENNYKTTPPVLDSDGSFFLYSKLTVDKSRWQQGNVFSCSVMHEALHNRFTQKSLSLSPGGGGGSGGGGSDIQMTQSPSTLSASVGDRVTITCQASQSISSHLNWYQQKPGKAPKLLIYKASTLASGVPSRFSGSGSGTEFTLTISSLQPDDFATYYCQQGYSWGNVDNVFGGGTKVTVLGGGGSGGGGSGGGGSGGGGSEVQLLESGGGLVQPGGSLSLSCAASGFSFSSGYDMCWVRQAPGKGLEWIACIAAGSAGITYDANWAKGRFTISRDNSKNTLYLQMNSLRAEDTAVYYCARSAFSFDYAMDLWGQGTLVTVSS
- TDCC EC50 (pM) (EGFR on BxPC-3 cells [1]): 0.322 pM
